Assay results as given in the nanobody polyreactivity screen of Harvey et al. (2022).

Test: yeast display, Sf9 membrane polyspecificity reagent, FACS + sequencing; frameworks hold sequencing errors
Method in brief: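 Genes from sorted yeast were amplified by colony PCR, read by MiSeq 2 × 250 sequencing and filtered on CDR length. These cells carried a synthetic nanobody library in Saccharomyces cerevisiae BJ5465 and were sorted by FACS into low and high (top ~1%) gates on anti-HA and streptavidin fluorescence. Polyreactivity is labelled according to the gate of origin.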

| Sequence | polyreactivity (PSR sort gate) |
| --- | --- |
| QVQLVESGGGLVQAGGSLRLSCAASGRTIVYYAMGRYRQAPGKERELVAAISSSGSTYYADSVKGRFTISRDNAKNTVYLQMNSLKPEDTAVYYCATTHDYWLWGMGYWGQGTQVTVSS | high polyreactivity |
| QVQLVESGGGLVQAGGSLRLSCAAYSYVMGWYRQAPGKERELVAAISQSGGSTYYADSVKGRFTISRDNAKNTVYLQMNSLKPEDTADYYCAARREPYQYNQYYSWGQGTQVTVSS | high polyreactivity |
| QVQLVESGGGLVQAGGSLRLRCAASGRIFRYYAMGWYRQAPGKESELVAAITSSGGSTFYADSVKARFTISRDNAKNTVYLQMNSLKPEDTAVYYCAAPRGTRKTYNSWGQGTQVTVSS | high polyreactivity |
| QVQLVESGGGLVQAGGSLRLSCAASGSTIEDYAMGWYRQAPGKERELVAAITSGDSTNYADSVKGRFTISRDNAKNTVYLQMISLKPEDTAVYYCFDLSNRYAVRYDYWGQGTQVTVSS | high polyreactivity |
| QVQLVESGGGLVQAGGSLRLSCAASGGTFSTNAMGWYRQAPGNERELVAAISLSGGRTDADSVKGRFTISRDNAKNTVYLQMNSLKPEDTAVYYCNADSAGITRARSELDYWGQGTQVTVSS | low polyreactivity |
| QVQLVESGGGLVQAGGSLRLSCAASGRIFTGYAMGWYRQAPGKERELVAAINWSGGSTYYADSVKGRFTISRDNAKNTVYLQMNSLKPADTAVYYCNAGYVFSGSYYKYDYWGQGTQVTVSS | high polyreactivity |
| QVQLVESGGGLVQAGGSLRLSCAASGRTFRGNTMGWYRQAPGKERELVAAISRGGSTNYADSVKGRFTISRDNTKNTVYLQMNSLTPEDTAVYYCAKDRYVRWGRTFEFDYWGQGTQVTVSS | low polyreactivity |
| QVQLVESGGGLVQAGGSLRLSCAASGSTFQYYAMGWYRQAPGKERELVARISDSSANTYYADSVKGRFTISRDNAKNTVYLQMNSLKPEDTAVYYCAASVPYKFYSVVSVRYEYWGQGTQVTVSS | low polyreactivity |
| QVQLVESGGGLVQAGGSLRLSCAASGSTFGDYAMGWSRQAPGKERELVAAISRGGSTYYADSVKGRFTISRDNEKNTVYLQMNSLKPEDTAVYYCNKDEGYSASPDGSTFDYWGQGTQVTVSS | low polyreactivity |
| QVQLVESGGGLVQAGGSLRLSCAASGSISGYYARGWYRQAPGKERELVASIRYTGARTYYADSVKGRFTISRDNAKYTVYVQMNSLKPEDTAVYYCAATEFTYYYSYDYWGQGTLVTVSS | low polyreactivity |
| QVQLVESGGGLVQAGGSLRLSCAASGFTFYKNTMGWYRQAPGKERELVAAISSSGSSTYYADSVKGRFTISRDNAKNTVYLQMNSLKPEDTAVYYCAAGRFAYHDDYWGQGTQVTVSS | high polyreactivity |
| QVQLVESGGGLVQAGGSLRLSCAASGFIFERYTMGWYRHAPGKERELVAAISDSGGSTYYADSVKGRFTISRDNAKNTVYLQMNSLKPEDTAVYYCAAKFRNYRPSKYYYWGQGTQVTVSS | high polyreactivity |
| QVQLQESGGGLVQAGGSLRLSCAASGYISYCVGMGWYRQAPGKEREFVASIAVGSNTYYADSVKGRFTISRYNAKISVYLQRNSLKPEDTAVYYCSVEDSWTYRFDYWGQGTQVTVSS | high polyreactivity |
| QVQLVESGGGLVQAGGSLRLSCAASGFIFRYYAMGWYRQAPGKERVLVARITPRGGRTYYADSVKGRFTISRDNAKNTVYLQMNSLKPEDTAVYYCAAVYPVLHEFGYWGQGTQVTVSS | high polyreactivity |
| QVQLVESGGGLVQAGGSLRLSCAASGSIFYYYAMGWSRQAPGKERELVAAITWRGGRTYYADSVKGRFTISRDNAKNTVYLQMNSLKPEDTAVYYCAADSRYYQYIYIHGYDYWGQGTQVTVSS | high polyreactivity |
| QVQLVESGGALVQAGGSLRLSCAASGFTFLIYAKGWYIQAPGKERELVAAITWRGSGTYYADCVKGRFTISRDNGQNTVYLQMNSLKPEDSAVYYCAARTARRTYDYWGQGTQVTVSS | low polyreactivity |
| QVQLVESGGGLVQAGGSLRLSCAASGRTFKFYAMGWYRQAPGKERELVATITSGGSTYYADSVKGRFTISRDNAKNTVYLQMNSLKPEDTAVYYCNKRYRKPGSGWYDSWGQGTQVTVSS | high polyreactivity |
| QVQLVESGGGLVQAGGSLRLSCAASGRIFVVNAMGWYRQAPGKERELVAAITRRGGSTYADSVKGRFTISRDNAKNTVYLQMNSLKPEDTAVYYCNAESYYGIFRYKYDYWGQGTQVTVSS | high polyreactivity |
| QVQLVESGGGLVQAGGSLRLSCAASGSIFVFYAMGWYRQAPGKERELVAAISSVGSTYYADSVKGRFTISRDNAKNTVYLQMNSLKPEDTAVYYCAAVTYYSGYYWGQGTQVTVSS | low polyreactivity |
| QVQLVESGGGLVQAGGSLRLSCAASGRIFWYNAMGWYRQAPAKERELVAGITRSGGRTYYADSVKGRFTISRDNAKNTVYLQMNSLKPEDTAVYYCAAAPYARRDYEYWGQGTQVTVSS | high polyreactivity |
| QVKLVESGGGLVQAGGSLRLSCAASGSTFHLNAMGWYRPAPGKDRELVAANSWDGSSTSYADSVKGRFTISRDNAKNTVYLQMNSLKPEDTAVYFCAADDTLDRVPTTFIDGSPGYGYWGQGTQVTVSS | low polyreactivity |

| Sequence | polyreactivity (PSR sort gate) |
| --- | --- |
| QVQLVESGGGLVQAGGSLRLSCAASGTYTNAMGWYRQAPGKERELVAAISSTVGRTYYADSVKGRFTISRDNAKNPVYLQMNSLKPEDTAVYYCATTHGRTYYYWGQGTLVTVSS | high polyreactivity |
| QVQLVESGGGLVQAGGSLRLSCAASGSTFPLYAMGWYRQAAGKEWELVAAITSGGGNTYYADSVKGRFTISRDNAKNTVYLQMNSLKPEDTAVYYCAAVGGYKSYYSYEYDYWGQGTQETVSS | low polyreactivity |
| QVQLVESGGGLVQAGGSLRLSCAASGFTFSWYAMGCYRQAPGKVRELVAAITSRGGITYYADSVKGRFTISRDNAKNTVYLQMNSLKPEDTAVYYCNAYSQRYGYYYWGQGTQVTVSS | high polyreactivity |
| QVQLVESGGGLVQAGGRLRLSCAASGSIFYRSAMGWYRQAPGKERELVAAITRSDGRTYYADSVKGRFTISRDNAKNTVYLQMNSLKPEDTAVYYCNKDGAYKTAYKRWTLYDYWGQGTQVTVSS | low polyreactivity |
| QDQLVESGGGLVQAGGSLRLSCAASGFTFRANAMGWYRQAPGKERELVAAISSGGRTNYADSVKGRFTISRDNAKNTVYLQMNSLKTEDTAVYYCAAAPSKWYYGYGYWGQGTQVTVSS | high polyreactivity |
| QVQLVESGGGLVQAGGSLRLSCAASGSTFKRNTMGWYRQAPGKERELVAAISRSGGYTYYADSVKGRFTISRDNAKNTVYLQMNSLNPEDTAVYYCNANVSSYVGSRSYGLSPYDYWGQGTQVTVSS | high polyreactivity |
| QVQLVESAGGLVQAGGSLRLTCAASGRTFHHNAMGWYRQPPGKERELFAAITSVGNTYADSVKGRFTISRDNAKNTVYLLMNSMKPEDTAVYYCNARIYDSRFYWSPATSRFEYWGQGTQVTLSS | low polyreactivity |
| QDQLVESRVGLVQAGGSLRLSCAASGMIIGIYDMGWYRQAPGKERELVAAIRRSGGSTYYADSVKGRFTISRDNAKNTVYLQMYSLKPEDTAAYYCATDAWYYSQTNHDYWGQGTHVTVSS | low polyreactivity |
| QVQLVESGGGLVQAGGSLRLSCAASGNIFDRNAMGWYRHAPGKESELVAAISRSGGRTYYADSVKGRFTISRDNAKNTVYLQMNSLKPEDTAVYYCNRRYRNYSSAKYDYWGQGTQVTVSS | high polyreactivity |
| QDQLVESGGGIVQAGGSLRLSCAASGSTFDFNAMGWYRQAPGKERELVASISWETGGTYADSVKGRFTISRDNGKNTVYLQMKSLNPEDTAVYYCAARPDYFIFEYWGQGTQVTVSS | low polyreactivity |
| QVQLVESGGGLVQAGGSLRLSCAASGSILVGNAMGWYRQAPGKERELVAAISKSGSSTHYADSVKGRFTISRDNAKNTVYLQMNSLKPEDTAVYYCNAVGRVYRAKYDYWGQGTQVTVSS | high polyreactivity |
| KVQLVESGGGLVQAGGSLRLSCAHSGYIFGYYAMGCYRQAPGKERELVAAISSGGNTNYADSVKGRYTISRDNAKTTVYLQMNSLKPEDTAVNYCATRDRYKRIRYDYWGQGTQVTVSS | high polyreactivity |
| QVQLVESGGGLVQAGGSLRLSCAASGFTFYDYVMGWYRQAPGKERELVASISARTGSTYYADSVKGRFTISRDNAKNTVYLQMNSLQPEDTAVYYCAADDGQYYRTEYDYWGQGTQVTVSS | low polyreactivity |
| QGQLVESGGALVQAGGSLRLSCAASGFILPIYAMAWYRQAPGKEREIVAAITWTGGSTYYADSVKGRFTISRDNAKNTVYLQMISLKPEDTAVYYCNVVSDIRLYYRYAYDYWGQGTQVTVSS | high polyreactivity |
| QVQLVESGGGLVQAGGSLRLSCAASGSTFANYAMGWYRQAPGKERELVAAISRGGNTYYADSVKVRFTISRDNAKNTVYLQMNSLKPEDTAVYYCAKYTYYSRPGDSDSDYWGQGTQVTVSS | high polyreactivity |
| QVQLVESGGGLVQAGGSLRLSCAASGSTFGVNVMGWYRQAPGKERELVAAISRSGGRTYYADSVKGRFTISRDNAKNTVYLQMNSLKPEDTAVYYCNTRGYDYWGQGTQVTVSS | high polyreactivity |
| QVQLVESVGGLVQAGGSLRLSCAASGITFDKYAMGWYRQATVKERELVAAISGSDGSTYYADSVKGRFTISRDNAKNNVYLQMNSLKPEDTAVYYCAAESEYAGTYEYDYWGQGTQVTVSS | low polyreactivity |
| QVQLVESGGGLVQAGGSLRLICAASGIIFFDYAMGWYRQAPGKEREMVAAISSGGGNTYYADSVKGRFTISRDNAKNTVYLQMNSLKPEDTAVYYCAAEPYIYGEQGAYDYWGQGTQVTVSS | low polyreactivity |
| QVQLVESGGGLVQAGGSLRLSCAASGSIFSYYAMGWYRQAPGKERELVAAISLSTSGTHYADSVKGRFTISRDNAKNTVYLQMNSLKPEDTAVYYCAARQGYPVFLYNSRYGYWGQGTQVTVSS | low polyreactivity |
| QVQLVESGGGLVQAGGSLRLSCAASGSISIQYVMGWYRPAPGKERELVAAIRVIGGSTSYADSVKGRFTISRDNAKNTVYLQMNSLKPEDTAVYYCAADWAWTISDGYYYGYPQYDYWGQGTQVTVSS | high polyreactivity |
